From patent US20090170069, “Cell free methods for detecting protein-ligand binding” (The Arizona Board of Regents on behalf of the University of …, published 2009)

Assays:
[1] = biological target: Aart-NFluc (six-finger zinc finger Aart) (synthetic); assay: with VEGF60-78-E2C hairpin-guide and 1 nM VEGF transcript; details: tags: N-terminal His tag, C-terminal NFluc(2-416) split luciferase fragment; hairpin with ssDNA guide tail
[2] = biological target: Aart-NFluc (six-finger zinc finger Aart) (synthetic); assay: competition; single A to T bp substitution in finger 3 triplet; details: tags: N-terminal His tag, C-terminal NFluc(2-416) split luciferase fragment; hairpin
[3] = biological target: CFluc-E2C (six-finger zinc finger E2C) (synthetic); assay: with HER2 122-140-Aart hairpin-guide and 1 nM HER2 transcript; details: tags: N-terminal CFluc(398-550) split luciferase fragment; hairpin with ssDNA guide tail
Chain of CFluc-E2C (six-finger zinc finger E2C) (synthetic) (chain, as listed by the source): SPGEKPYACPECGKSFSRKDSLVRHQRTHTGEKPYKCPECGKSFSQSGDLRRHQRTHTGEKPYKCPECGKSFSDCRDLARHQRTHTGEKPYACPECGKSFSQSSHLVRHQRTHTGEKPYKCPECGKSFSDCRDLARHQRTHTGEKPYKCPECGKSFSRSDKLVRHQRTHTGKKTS

[4] = biological target: Aart-NFluc (six-finger zinc finger Aart) (synthetic); assay: with Pum1-E2C hairpin-guide and 1 nM target ssRNA or ssDNA; G to T target mutation gives background; details: tags: N-terminal His tag, C-terminal NFluc(2-416) split luciferase fragment; hairpin with ssDNA guide tail
[5] = biological target: CFluc-E2C (six-finger zinc finger E2C) (synthetic); assay: with VEGF81-99-Aart hairpin-guide and 1 nM VEGF transcript; details: tags: N-terminal CFluc(398-550) split luciferase fragment; hairpin with ssDNA guide tail
[6] = biological target: Aart-NFluc (six-finger zinc finger Aart) (synthetic); assay: with E2C-HER2 100-118 hairpin-guide and 1 nM HER2 transcript; details: tags: N-terminal His tag, C-terminal NFluc(2-416) split luciferase fragment; hairpin with ssDNA guide tail
[7] = biological target: Aart-NFluc (six-finger zinc finger Aart) (synthetic); assay: competition; competes with E2C-1-Aart in split-luciferase assay with CFluc-E2C; IC50 only in figure; reference hairpin; details: tags: N-terminal His tag, C-terminal NFluc(2-416) split luciferase fragment
[8] = biological target: CFluc-E2C (six-finger zinc finger E2C) (synthetic); assay: with Pum2-Aart hairpin-guide and 1 nM target ssRNA or ssDNA; G to T target mutation gives background; details: tags: N-terminal CFluc(398-550) split luciferase fragment; hairpin with ssDNA guide tail

Chain of Aart-NFluc (six-finger zinc finger Aart) (synthetic) (chain, as listed by the source): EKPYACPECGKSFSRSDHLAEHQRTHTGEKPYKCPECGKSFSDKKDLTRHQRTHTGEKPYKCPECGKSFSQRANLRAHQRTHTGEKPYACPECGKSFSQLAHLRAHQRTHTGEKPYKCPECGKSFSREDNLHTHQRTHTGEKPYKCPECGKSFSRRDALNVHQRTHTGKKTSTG

B1: VEGF81-99-Aart hairpin-guide (dsDNA)
DNA: GATCTCATCAGGGTACTCCAAAACTCCGGGCTTTTCCCTACATGCTCCTGCATGTAGGGAAAAGCCCGGAG
Question: Which activity [1] does the source give for B1 here?
Answer: 39 fold luminescence

Question: With GCATGTAGAGAATAACCAGGCGTCCTCGCCTGGTTATTCTCTACATGC (dsDNA) [Aart competitor hairpin, designed ATA] as the binder, how does the binding signal [2] read?
Answer: 20 fold reduced vs designed hairpin

B2: E2C-HER2 100-118 hairpin-guide (dsDNA)
DNA: GAGGGGCCGGAGCCGCAGTGCGTCCTCGCACTGCGGCTCCGGCCCCTCAAAACGGCACAGACAGTGCGCGT
Question: For B2, which activity [3] is on record?
Answer: 4.3 fold luminescence over hairpin-guides alone

B3: Pum2-Aart hairpin-guide (dsDNA)
DNA: GCCGCTATATCAAAAAACTCCGGGCTTTTCCCTACATGCTCCTGCATGTAGGGAAAAGCCCGGAG
Question: Which activity [4] does the source give for B3 here?
Answer: 4.5 fold luminescence over background

B4: VEGF60-78-E2C hairpin-guide (dsDNA)
DNA: GAGGGGCCGGAGCCGCAGTGCGTCCTCGCACTGCGGCTCCGGCCCCTCAAAAGAAGATGTCCACCAGGGTC
Question: With B4 as the binder, how does the activity [5] read?
Answer: 39 fold luminescence

B5: HER2 122-140-Aart hairpin-guide (dsDNA)
DNA: CCCTTGCAGCGGGCACAGCAAAACTCCGGGCTTTTCCCTACATGCTCCTGCATGTAGGGAAAAGCCCGGAG
Question: With B5 as the binder, how does the activity [6] read?
Answer: 4.3 fold luminescence over hairpin-guides alone

Question: Does GCATGTAGGGAAAAGCCCGGCGTCCTCGCCGGGCTTTTCCCTACATGC (dsDNA) [Aart competitor hairpin, consensus] bind [7]?
Answer: binds

Question: For GCATGTAGGGAATAGCCCGGCGTCCTCGCCGGGCTATTCCCTACATGC (dsDNA) [Aart competitor hairpin, consensus ATA], which binding signal [2] is on record?
Answer: 60 fold reduced vs consensus hairpin

B6: Pum1-E2C hairpin-guide (dsDNA)
DNA: GAGGGGCCGGAGCCGCAGTGCGTCCTCGCACTGCGGCTCCGGCCCCTCAAAACTATATACACCATG
Question: With B6 as the binder, how does the activity [8] read?
Answer: 4.5 fold luminescence over background
